# Source: article PMC3928423, “RRP6 from Trypanosoma brucei: Crystal Structure of the Catalytic Domain, Association with EAP3 and Activity towards Structured and Non-Structured RNA Substrates” (PLoS ONE, 2014)
# Positions count from the first letter of the chain named.
# T1: TbEAP3ΔC2 (Trypanosoma brucei, UniProt Q582G1 1-144)
# T1 sequence: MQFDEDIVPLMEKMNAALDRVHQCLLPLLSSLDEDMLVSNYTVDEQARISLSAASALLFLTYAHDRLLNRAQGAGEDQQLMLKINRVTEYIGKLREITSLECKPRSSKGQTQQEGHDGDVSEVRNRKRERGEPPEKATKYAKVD
# T2: TbEAP3ΔC1 (Trypanosoma brucei, UniProt Q582G1 1-183)
# T2 sequence: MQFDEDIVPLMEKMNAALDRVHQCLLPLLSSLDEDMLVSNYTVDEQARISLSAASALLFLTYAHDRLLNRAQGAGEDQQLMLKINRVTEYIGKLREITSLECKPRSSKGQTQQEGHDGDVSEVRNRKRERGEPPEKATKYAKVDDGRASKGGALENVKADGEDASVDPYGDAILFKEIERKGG
# B1: TbEAP3ΔC1 (residues 1 to 183) (domain or fragment, Trypanosoma brucei, UniProt Q582G1 1-183, looked up)
# chain: T2 sequence
# notes: TbEAP3, Trypanosoma brucei, gene Tb927.7.5460, residues 1-183 (C-terminal truncation); one copy in the heterodimer with TbRRP6ΔC; source: E. coli C3022 (pET21a), purified (His-Trap, Superdex 200, mono Q); also co-expressed with TbRRP6ΔC and co-purified
# B2: dsDNA (dsDNA)
# DNA 1: CCAAAAAAAAAAAAACCACTCACTCACTCA
# DNA 2: TGAGTGAGTGAGTGGTTTTTTTTTTTTTGG
# B3: dsRNA (dsRNA)
# RNA 1: B2 DNA 1 with T20U, T24U, T28U
# RNA 2: UGAGUGAGUGAGUGGUUUUUUUUUUUUUGG
# Key:
# [1] = molecular target: TbEAP3ΔC2 (residues 1 to 144) (Trypanosoma brucei); assay: SEC-MALS; under reducing condition (10 mM DTT); data not shown
# [2] = molecular target: TbEAP3ΔC2 (residues 1 to 144) (Trypanosoma brucei); assay: SEC-MALS; HPLC (Shimadzu), Shodex KW-804 or KW-803 column, proteins at 5 mg/mL in 50 mM Tris-HCl pH 7.5, 500 mM NaCl, 5% glycerol, 0.5 mL/min; miniDAWN TREOS
# [3] = molecular target: TbRRP6ΔC (residues 20 to 540) (Trypanosoma brucei) (UniProt Q95Z10); assay: as above
# [4] = molecular target: T1, TbEAP3ΔC2; assay: EMSA; 5 mM MnCl2; protein 5-50 uM; 10 mM Tris-HCl pH 8.0, 10 mM DTT, 25 mM KCl, 5 mM MnCl2; 50 nM oligonucleotide; 5, 10 or 50 uM protein; 30 min on ice; native 6% gel, 0.25x TBE, 0.5% glycerol; details: protein: recombinant, tags: pET21a, chain copies: 2
# [5] = molecular target: T2, TbEAP3ΔC1; assay: as above; details: protein: recombinant, tags: pET21a, chain copies: 2
# [6] = molecular target: the molecule itself; assay: SEC-MALS; HPLC (Shimadzu), Shodex KW-804 or KW-803 column, proteins at 5 mg/mL in 50 mM Tris-HCl pH 7.5, 500 mM NaCl, 5% glycerol, 0.5 mL/min; miniDAWN TREOS
# [7] = label: 5'-FAM on strand 1, blunt
# [8] = label: 5'-FAM, hairpin with 20 nt 3' extension
molecule,measurement,setting,value
TbEAP3ΔC2 (residues 1 to 144) (domain or fragment),stoichiometry N,[1],2
same,stoichiometry N,[2],2
same,stoichiometry N,[3],1
CCAAAAAAAAAAAAACCACTCACTCACTCA (ssDNA) [ssDNA],binding result,"[4]; label: 5'-FAM, single strand",no binding
same,binding result,"[5]; label: 5'-FAM, single strand",no binding
CCAAAAAAAAAAAAACCACUCACUCACUCA (ssRNA) [ssRNA],binding result,"[4]; label: 5'-FAM, single strand",no binding
same,binding result,"[5]; label: 5'-FAM, single strand",no binding
B1,stoichiometry N,[3],1
same,stoichiometry N,[6],2
B2,binding result,[4]; [7],no binding
same,binding result,[5]; [7],no binding
AUUUAUUUAGGGCGGGCGCAAGCCCGCCCUAUUUAUUAUUUAUUAUUUA (structured_RNA) [GNRA20],binding result,[4]; [8],no binding
same,binding result,[5]; [8],no binding
B3,binding result,[4]; [7],no binding
same,binding result,[5]; [7],no binding
